B1: Tumor necrosis factor receptor superfamily member 11A (Mus musculus), O35305 (parent)
chain: MAPRARRRRQLPAPLLALCVLLVPLQVTLQVTPPCTQERHYEHLGRCCSRCEPGKYLSSKCTPTSDSVCLPCGPDEYLDTWNEEDKCLLHKVCDAGKALVAVDPGNHTAPRRCACTAGYHWNSDCECCRRNTECAPGFGAQHPLQLNKDTVCTPCLLGFFSDVFSSTDKCKPWTNCTLLGKLEAHQGTTESDVVCSSSMTLRRPPKEAQAYLPSLIVLLLFISVVVVAAIIFGVYYRKGGKALTANLWNWVNDACSSLSGNKESSGDRCAGSHSATSSQQEVCEGILLMTREEKMVPEDGAGVCGPVCAAGGPWAEVRDSRTFTLVSEVETQGDLSRKIPTEDEYTDRPSQPSTGSLLLIQQGSKSIPPFQEPLEVGENDSLSQCFTGTESTVDSEGCDFTEPPSRTDSMPVSPEKHLTKEIEGDSCLPWVVSSNSTDGYTGSGNTPGEDHEPFPGSLKCGPLPQCAYSMGFPSEAAASMAEAGVRPQDRADERGASGSGSSPSDQPPASGNVTGNSNSTFISSGQVMNFKGDIIVVYVSQTSQEGPGSAEPESEPVGRPVQEETLAHRDSFAGTAPRFPDVCATGAGLQEQGAPRQKDGTSRPVQEQGGAQTSLHTQGSGQCAE

Variants of: B1
Conditions: with Tnfsf11, O35235-1
Chain of Tnfsf11, O35235-1 (O35235 whole entry): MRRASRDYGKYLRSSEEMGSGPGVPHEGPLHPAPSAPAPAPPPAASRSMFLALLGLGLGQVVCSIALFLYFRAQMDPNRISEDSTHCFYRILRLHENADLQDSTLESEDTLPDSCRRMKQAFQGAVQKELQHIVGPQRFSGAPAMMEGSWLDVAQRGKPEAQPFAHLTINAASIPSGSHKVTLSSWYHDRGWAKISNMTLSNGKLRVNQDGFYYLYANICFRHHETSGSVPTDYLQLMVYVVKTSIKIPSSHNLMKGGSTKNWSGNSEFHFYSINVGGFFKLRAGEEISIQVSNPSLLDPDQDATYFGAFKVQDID
In the case of G54R, the “effect of a mutation on the interaction” value is reported as “disrupting interaction”. With D85A the “effect of a mutation on the interaction” value was “decreasing interaction”. In the case of K97A, the “effect of a mutation on the interaction” value is reported as “disrupting interaction”. E126A was tested, and the “effect of a mutation on the interaction” value was “disrupting interaction”. For C127A, the “effect of a mutation on the interaction” value was “disrupting interaction”. K171G was tested, and the “effect of a mutation on the interaction” value was “disrupting interaction”.
